# No end group written: not given here.
# Key:
# [1] = tested on: EVs isolated from cow milk; assay: Milk EV loading with Calcein AM; settings: 0.1 and 1 μM
# Protocol: EVs were isolated from cow milk and loaded with neutral non-fluorescent Calcein AM (10 μM) for 48 hours at 37 C in PBS buffer at pH 8.5 (FIG. 30A). […] Purity and integrity of exosomes isolated from cow milk was confirmed by negative stain electron microscopy (EM). FIG. 30B) illustrates an exosome isolated from cow milk. Scale bar=50 nm. The methods described herein of isolation from milk were adapted to obtain high yields of EV, taking particular care not to cause rapid and/or large-scale precipitation of milk casein, as well as in centrifugation steps, which can reduce EV yields from milk.
# An exemplar of these methods is shown in FIGS. 31A-31C wherein Milk EVs incubated with Calcein AM show time-(FIG. 31A), pH-(FIG. 31B) and concentration-dependent effects on uptake of Calcein by EVs. Important to this method in the case of Calcein AM, are the multiple chemical groups linked by ester bonds to the molecule, which shield it's negatively charged moieties. Cleavage of these groups by ester bond breaking activities within EVs results in Calcein becoming negatively charged, fluorescent and retained within the EV—as exemplified by the green spots seen in most figure panels in FIG. 31. In FIG. 31A EVs are illustrated that were incubated for 1, 2 or 3 hours in PBS at 37 C at pH 7.4 with Calcein AM (5 μM). […]
# [2] = tested on: HC (hemichannel) activity; assay: Hemichannel block in perfused hearts; parameters: species or system mouse; settings: 2 micromolar for 20 minutes before biotin-alphaCT11 infusion
# Protocol: Briefly, isolated mouse hearts were perfused with 2 micromolar carbenoxolone for 20 minutes to block HC (hemichannel) activity prior to a 20 minute infusion with biotinylated alpha CT11 (biotin-alphaCT11) according to the method described in Example 20. […] Biotinylated alpha CT11 was detected and measured on LV cryosections by streptavidin Alexa647 as noted in association with FIGS. 18A-18E.
# Connexin 43 hemichannels = Connexin 43 hemichannels (Homo sapiens, UniProt P17302); type: cell-based; settings: 0.1 mM Ca^2+; Gap19 (200 μM)
# Protocol: Media containing 0.1 mM Ca^2+ was used to open Cx43 hemichannels in the presence of 50 μM alphaCT11 peptide and/or the hemichannel blockers; Gap19 (200 μM) and carbenoxolone ([…]).
# [3] = type: in vitro ADME
# Source text: Despite efficacy of these peptides being delivered as unprotected peptide formulations, particularly when devlivered topically, delievery via many routes can be impeaded by degredation inside the body. Many other biologic and small molecule therapeutics also suffer from similar degradeation issues. Indeed, most unprotected short peptides and polynucleotides (e.g. miRNAs) are rapidly degraded in body fluids in vivo, thereby limiting the interest of the pharmaceutical industry in such molecules. This consideration is particularly relevant in pathologic situations, such as the heart post-MI, where hypoxia, oxygen free radicals, and […] prompt upregulation of degradation pathways. […] Protection by being loaded inside of an engineered vesicle can reduce degredation and/or can facilitate delivery of the cargo by forming channels with connexons present in cell membranes. See e.g. FIG. 17.
# GST-Cx43 CT = biological target: T1, GST-Cx43 CT (Rattus norvegicus, UniProt P08050); assay: EDC cross-linking of kinase reaction mixtures, Cx43 CT; type: binding; settings: 5, 10 and 25 μM
# T1 construct: pGEX-6-P2 Cx43 CT amino acids 255-382; made in house; host or cells: E. coli BL21
# Protocol: To characterize the interaction between the Cx43 CT substrate and peptides, the in vitro kinase assay was performed as above with modification and the constituents then subjected to a cross-linking reaction. The assay buffer used was 20 mM 3-(N-morpholino) propanesulfonic acid (MOPS), pH 7.2. All other reagents present in the kinase reaction were maintained as described above. The reaction was allowed to proceed at 37° C. for 15 minutes. Afterwards, the carbodiimide crosslinker 1-Ethyl-3-(3-dimethylaminopropyl) carbodiimide HCl (EDC) (Thermo, 22980) was added to each solution for a final concentration of 20 mM. The solution was allowed to cross-link for one hour at room temperature. The reaction was stopped by the addition of 4×LDS loading buffer, boiled for 5 minutes and subsequently separated by PAGE. The resulting gel was stained in Coomassie brilliant blue (Sigma, B0770) for two hours and destained in a solution of 4% methanol 7% acetic acid overnight. Gel bands were subsequently excised for mass spectrometric analysis. For the direct interaction between protein and peptides, PBS, pH 7.5 was used as the coupling buffer. The protein (50 μg/ml) and peptide (25 μM) were allowed to react at room temperature for one hour before EDAC was added to the reaction mixture. The reaction was Western blotted for Cx43, GST or NeutroAvidin. […]
# ZO-1 PDZ2 = biological target: T2, ZO-1 PDZ2 (Homo sapiens, UniProt Q07157); assay: Protein thermal shift assay, ZO-1 PDZ2; type: binding; settings: 500 μg/ml protein, 25-100 μM peptide
# T2 construct: the second of the three PDZ (PDZ2) domains of ZO-1; made in house; host or cells: E. coli BL21
# T2 sequence (Q07157 186-264 limits assumed): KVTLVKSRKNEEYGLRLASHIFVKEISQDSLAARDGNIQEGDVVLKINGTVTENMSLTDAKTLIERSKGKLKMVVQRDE
# Protocol: Thermal stability of recombinant GST-PDZ2 or Cx43 CT in the presence or absence of peptides was determined in a 96-well format. Each assay well was composed of 500 μg/ml protein, 25-100 μM of each peptide in PBS buffer, pH7.4. All assays were performed independently six times. Samples were generally prepared in 96-well plates at final volumes of 20 μL. The fluorescent dye SYPRO Orange (5000× concentrate in DMSO, ThermoFisher, S6650) was added to a final concentration of 8X. Reactions were run on QuantStudio 6 Flex Real-Time PCR system (Applied Biosystems, part of Life Technologies Corporation, CA) according to the manufacturer's recommendations using a melt protocol in 0.05-degree/see increments from 25° C. to 95° C. The Reporter Dye was “ROX” and quencher Dye and passive reference were selected as “None” for the melt curve according to manufacturer's instructions. The data were analyzed using Protein Thermal Shift™ Software v1.3 package (Applied Biosystems, CA).
# Hela cells = assay: Cellular uptake of RhodB-aCT11 peptides; type: cell-based; settings: 200 to 2000 μM, 30 or 90 minutes, 37 C
# Source text: Cells can take up the peptide, cytoplasmic esterases will cleave the allyl groups converting the peptide to RhodB-aCT11. RhodB-aCT11-Est, or any chemically modified drug molecule designed for cell uptake using ester bonded groups or related chemical modifications, can be packaged as cargo into EVs and exported by the cell into the media. EVs loaded with cargo molecules by this method can then be isolated using standard protocols and used in the treatment and other methods detailed herein.
# Monolayers of Hela cells incubated with fluorescent-tagged RhodamineB-aCT11-Est, a cell-permeant peptide with allyl groups linked by ester bonds at aspartic (D) and glutamic (E) acid residues, as well as its carboxyl terminus are shown in FIG. 34A. The cells were incubated for 30 or 90 minutes at 37 C at pH 7.4 with different concentrations of peptides between 200 and 2000 μM. […] Cellular uptake can be observed in FIG. 34A to be particularly evident following 90 minutes at higher peptide concentrations (i.e., >1000 μM). […] RhodB-aCT11-Est taken up in this manner by cells can be packaged as cargo into EVs and following isolation can these EVs be used in treatment and other methods detailed herein.
# [4] = biological target: Cx43 CT (Connexin 43 carboxyl terminus, amino acids 255 to 382) (UniProt P08050 255-382, limits assumed); assay: cell-based or functional assay
# Chain of Cx43 CT (Connexin 43 carboxyl terminus, amino acids 255 to 382) (P08050 255-382 limits assumed): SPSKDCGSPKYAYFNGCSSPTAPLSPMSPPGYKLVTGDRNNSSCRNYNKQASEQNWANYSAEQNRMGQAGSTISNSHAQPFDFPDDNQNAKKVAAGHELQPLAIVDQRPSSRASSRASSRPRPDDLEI
# Chain of Connexin 43 hemichannels (P17302 2-382 limits assumed): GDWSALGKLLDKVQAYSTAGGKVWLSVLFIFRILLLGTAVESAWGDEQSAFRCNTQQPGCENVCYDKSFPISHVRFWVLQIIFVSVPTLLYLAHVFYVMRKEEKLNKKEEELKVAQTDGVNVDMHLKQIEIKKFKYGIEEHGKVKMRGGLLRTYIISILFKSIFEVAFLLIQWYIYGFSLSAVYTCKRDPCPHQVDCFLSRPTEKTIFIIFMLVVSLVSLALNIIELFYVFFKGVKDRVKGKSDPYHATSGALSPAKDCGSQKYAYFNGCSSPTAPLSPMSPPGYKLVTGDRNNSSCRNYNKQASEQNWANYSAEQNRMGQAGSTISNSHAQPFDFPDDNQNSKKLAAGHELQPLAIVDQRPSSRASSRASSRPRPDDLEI
# T1 sequence (P08050 255-382): as the sequence (P08050 255-382 limits assumed) above
molecule,measurement,setting,value
O=S(=O)(F)Cc1ccccc1 [PMSF],Calcein uptake into and retention within milk EVs,[1],respectively inhibited and blocked
CC1(C)[C@@H](OC(=O)CCC(=O)O)CC[C@]2(C)[C@H]3C(=O)C=C4[C@@H]5C[C@@](C)(C(=O)O)CC[C@]5(C)CC[C@@]4(C)[C@]3(C)CC[C@@H]12 [carbenoxolone],cytoplasmic levels of alpha CT11 in myocytes,[2],significant reductions (p<0.05) in cytoplastic levels of alpha CT11
same,alphaCT11 uptake in presence of hemichannel blocker,Connexin 43 hemichannels,Dramatically lower levels of peptide uptake
"Gap19: Cx43 hemichannel blocker (KQIEIKKFK; Gap19; UniProt P17302 128-136, looked up, fragment)",alphaCT11 uptake in presence of hemichannel blocker,Connexin 43 hemichannels,Dramatically lower levels of peptide uptake
"RPRPDDLEI [alpha CT11, RPRPDDLEI]",time to degradation in blood serum,[3],about 30 minutes
"RQPKIWFPNRRKPWKK LPAARIAPR (RQPKIWFPNRRKPWKKLPAARIAPR) [M4 scram., reference compound]",EDC cross-linking to Cx43 CT,GST-Cx43 CT,no evidence of cross-linking
same,PDZ2 melt temperature (Tm),ZO-1 PDZ2,PDZ2 interaction incompetent
"RhodB-aCT11: fluorescently tagged RhodamineB aCT11 peptide (RPRPDDLEI) without ester bonded groups (also: RhodamineB label, site not given here)",cellular uptake,Hela cells,little evidence for uptake of RhodB-aCT11 is observed
same,cellular uptake,Hela cells; listed as RhodamineB aCT11,does not indicate cellular uptake
RQPKIWFPNRRKPWKKRPRPDDLEI (not fully specified) [alpha CT1],"Cx43 S368 phosphorylation (PKC-ε kinase assay, blots of pS368 over total Cx43)",[4],~3 fold
